This note sets out measurements from the supplement of paper PMC9170038.

The series deals with MS2 coat protein. Nature of the series: apparent KD of MS2 coat protein; designed switch direction (-1 OFF switch, 1 ON switch): 1; higher = weaker reporter binding. A digest of the protocol:
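Transcription of designed RNA switches on Illumina chips was done by stalled E. coli RNA polymerase. SNAP-549-labelled MS2 coat protein was then titrated in doubling steps from 0.7 or 1.5 nM to 3 µM, with steps of 0.8–1.5 h at the lowest and 10–20 min at the highest concentration. The per-design median over clusters of curve-fitted normalised fluorescence is reported as apparent KD.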

[1] abbreviates: Eterna round: R95, input ligand: FMN 200 uM.
Where [2] appears, read: Eterna round: R95, input ligand: microRNA oligo, concentration not stated.
Setting [3] is: Eterna round: R95, input ligand: none.
Where [4] appears, read: input ligand: microRNA oligo, concentration not stated.

Take “CAGCGCUGUCGAGAGGAUAUGCGGUGAUGGACAUGAGGAUCACCCAUGUUAGCGACAGCAUCACGGCAGAAGGCUCUACCGCUGG [Soteed Omei mod 42] (puzzle: Same State 2)”: the “apparent KD of MS2 coat protein” value reads like this: under setting [1], 12.6 nM; under setting [2], 9.78 nM; under setting [3], 9.61 nM.
Consider “CAGCGCUGUCGAGAGGAUAUGCGGUGAUGGACAUGAGGAUCACCCAUGUUAGCGAUAGCAUUACGGUAGAAGGCUCUACAGCUGC [Soteed no mod] (puzzle: Same State 2)”, for which the “apparent KD of MS2 coat protein” value reads like this: under setting [1], 15 nM; under setting [2], 25.5 nM; under setting [3], 30.2 nM.
With “CAGCGCUGUCGAGAGGAUAUGCGGUGAUGGACAUGAGGAUCACCCAUGUUAGCGAUAGCAUUACGGUAGAAGGCUCUACAGCUGC [Soteed] (Eterna round: R96, puzzle: Same State 2)”, the “apparent KD of MS2 coat protein” value (input ligand: FMN 200 uM) was 18.7 nM, the “apparent KD of MS2 coat protein” value under setting [4] came out at 32.1 nM and the “apparent KD of MS2 coat protein” value (input ligand: none) came out at 47.4 nM.
As to “CAGCGCUGUCGAGAGGAUAUGCGGUGGUGGACAUGAGGAUCACCCAUGUUAGCGAUAGCAUUACGGUAGAAGGCUCUACAGCUGC [Soteed - 2] (puzzle: Same State 2)”, the “apparent KD of MS2 coat protein” value under setting [1] was 30.9 nM, the “apparent KD of MS2 coat protein” value under setting [2] was 22.4 nM and the “apparent KD of MS2 coat protein” value under setting [3] was determined as 33 nM.
On the same counts, the results for “CAGCGCUGUUGAGAGGAUAUGCGGUGAUGGACAUGAGGAUCACCCAUGUUAGCGACAGCAUUACGGUAGAAGGCUUCACAGCUGC [Soteed Omei mod 16] (puzzle: Same State 2)” are 38.9 nM, 126 nM and 235 nM.
On the same counts, the results for “CAGUGCUGUCGAGAGGAUAUGCGGUGAUGGACAUGAGGAUCACCCAUGUUAGCGACAGCGUCACGGCAGAAGGCUCUACCCACUG [Soteed Omei mod 46] (puzzle: Same State 2)” are 11.7 nM, 15.3 nM and 18.2 nM.
“CCAACAUACAAUUUAAGAUCACAUGAGGAUCACCCAUGUAUGCAGGAUAUCAGCUCGUGUAGAGCUGAGAAGGGCAAUUUAAUU [SSNG3/1-A4] (Eterna round: R96, puzzle: Same State NG 3)”: the “apparent KD of MS2 coat protein” value is, setting by setting: (input ligand: FMN 200 uM) 103 nM; under setting [4], 193 nM; (input ligand: none) 265 nM.
In the same order, the values of “CCAACGUACAAUUUAGAUCUACAUGAGGAUCACCCAUGUACGGAGGAUAUCAGCUCGUGUAGAGCUGAGAAGGCCGAAUUAAUU [SSNG3/2-A4] (Eterna round: R96, puzzle: Same State NG 3)” are 88 nM, 298 nM and 465 nM.
On to “CCAACGUACAAUUUAGAUCUACAUGAGGAUCACCCAUGUACGGAGGAUAUCAGCUCGUUUAGAGCUGAGAAGGCCGAAUUAAUU [SSNG3/2-A3] (Eterna round: R96, puzzle: Same State NG 3)”, for which, under setting [4], the “apparent KD of MS2 coat protein” value came out at 238 nM.
Consider “CCAAUGUACAAUUUAGAUCUACAUGAGGAUCACCCAUGUACAGAGGAUAUCAGCUCGAUUAGAGCUGAGAAGGCUGAAUUAAUU [SSNG3/3-A2] (Eterna round: R96, puzzle: Same State NG 3)”, for which the “apparent KD of MS2 coat protein” value runs as follows: (input ligand: FMN 200 uM) 137 nM; under setting [4], 135 nM; (input ligand: none) 266 nM.
On the same counts, the results for “CCAGCAUCACGAGGAUAUGGAGGUUCCCGAAAGACAUGAGGAUCACCCAUGUAUGUACGCCGCCUUCAGAAGGUGUAUAAGCGA [Eternabot solution 31] (Eterna round: R96, puzzle: Same State NG 2)” are 65.7 nM, 38.2 nM and 58.7 nM.
In the same order, the values of “CCAUAGUACAAUUUAGAUCUACAUGAGGAUCACCCAUGUACUGAGGAUAUCAGCUCGAUUAGAGCUGAGAAGGCAGAAUUAAUU [SSNG3/5-A2] (Eterna round: R96, puzzle: Same State NG 3)” are 58.4 nM, 96.8 nM and 122 nM.
In the same order, the values of “CCCAGCGUUACAGGAUAUGGUGAGGAUCACCCACUAGAAGGGUAAACAUGUGCGUCGGACAUGAGGAUCACCCAUGUAGGGCGU (Eterna round: R96, puzzle: Same State NG 1)” are 20.6 nM, 17.9 nM and 27 nM.
Regarding “CCCAGGCAUGGAGGAUAUGGGAACAUGAGGAUCACCCAUGUUAACUCCGUAGGCGGCUUAAGGCACCAGAAGGCUACGGCUGGU [Eternabot solution 15] (Eterna round: R96, puzzle: Same State NG 2)”, the “apparent KD of MS2 coat protein” value is, setting by setting: (input ligand: FMN 200 uM) 112 nM; under setting [4], 67.8 nM; (input ligand: none) 83 nM.
On the same counts, the results for “CCGAAAGGAGUAGGAUAUGUAGGAUAUUCCUACAUGAGGAUCACCCAUGUUCGCAUGGAAGAAGGACAGAAGGACACGGAAACG [pwkr ssNG2 2FMN + 1F5.14] (Eterna round: R96, puzzle: Same State NG 2)” are 212 nM, 19 nM and 66.2 nM.
On the same counts, the results for “CCGAUUUAUGGAGGAUAUGGAGCCUUAUUGGCUCCAGAAGGUCAAUACAUGAGGAUCACCCAUGUGUCGGCGGUCAAUAGACCG [Eli NG1ss - 72] (Eterna round: R96, puzzle: Same State NG 1)” are 61.7 nM, 44.2 nM and 128 nM.
In the case of “CCGCGCUGUCGAGAGGAUAUGCGGUGAUGGACAUGAGGAUCACCCAUGUUAGCGAUAGCAUUACUGUAGAAGGCUCUACAGCGGC [JL-ss2-3.10 ViennaUCT mod] (puzzle: Same State 2)”, the “apparent KD of MS2 coat protein” value runs as follows: under setting [1], 12.9 nM; under setting [2], 18.3 nM; under setting [3], 21.3 nM.
On to “CCGCUCUAUGGAGGAUAUGGGCCUGCCCGGGAUAACGGGCCUAAUACAUGAGGAUCACCCAUGUCCCAGAAGGCCGCUAGAGCC [Errexexe] (Eterna round: R96, puzzle: Same State NG 2)”, for which the “apparent KD of MS2 coat protein” value runs as follows: (input ligand: FMN 200 uM) 120 nM; under setting [4], 348 nM; (input ligand: none) 471 nM.
In the same order, the values of “CCGGCAAGUAUAGGAUAUCCCGCUACAGAAGCGGGAGAAGGGUGCCAAACAUGAGGAUCACCCAUGUACACCGGAAAUAUAUAA [Soorve] (Eterna round: R96, puzzle: Same State NG 1)” are 36.4 nM, 31.2 nM and 34.6 nM.
In the same order, the values of “CCGGGUAAUGGAGGAUAUGGAGCCUUAUUGGCUCCAGAAGGUCAAUAACAUGAGGAUCACCCAUGUCCGGCGGUCAAUAGACCG [Eli NG1ss - 68] (Eterna round: R96, puzzle: Same State NG 1)” are 87.5 nM, 202 nM and 775 nM.
On the same counts, the results for “CCGGUUAAUGGAGGAUAUGGAGCCUUAUUGGCUCCAGAAGGCUAACAUGAGGAUCACCCAUGUUUACCGGCGGUCAAUAGACCG [Eli NG1ss - 62] (Eterna round: R96, puzzle: Same State NG 1)” are 11 nM, 11 nM and 18.8 nM.
“CCGGUUUAUGGAGGAUAUGGAGCCUUAUUGGCUCCAGAAGGCUAAUAACAUGAGGAUCACCCAUGUCGGCGGUCUAAUGACCGA [Eli NG1ss - 56] (Eterna round: R96, puzzle: Same State NG 1)”: the “apparent KD of MS2 coat protein” value under setting [4] was 21.8 nM.
For the sequence “CCGGUUUAUGGAGGAUAUGGAGCCUUAUUGGCUCCAGAAGGUCAAUAACAUGAGGAUCACCCAUGUCCGGCGGUCAAUAGACCG [Eli NG1ss - 69] (Eterna round: R96, puzzle: Same State NG 1)”, the “apparent KD of MS2 coat protein” value by setting is: (input ligand: FMN 200 uM) 120 nM; under setting [4], 146 nM; (input ligand: none) 349 nM.
In the same order, the values of “CCUUAGUACAAUUUAGAUCUACAUGAGGAUCACCCAUGUACUGAGGAUAUCAGCUCGAAUAGAGCUGAGAAGGCAGAAGUACUU [SSNG3/7-A1] (Eterna round: R96, puzzle: Same State NG 3)” are 60.3 nM, 154 nM and 130 nM.
On the same counts, the results for “CCUUGUAGCGGAGGAUAUGGGCCUCACUCAGUCAAAGAGUGAGAAACAUGAGGAUCACCCAUGUCCCAGAAGGCCGCUGCAUGG [Ridizaer] (Eterna round: R96, puzzle: Same State NG 2)” are 12.1 nM, 13.8 nM and 19.1 nM.
With “CGACACACGGCAGGAUAUGCUUAGCAAAGCUAAGCAGAAGGGCCUCAUGUCGUGGAAACCUGACAUGAGGAUCACCCAUGUCGG [Omei SS(NG)1 Cv3] (Eterna round: R96, puzzle: Same State NG 1)”, the “apparent KD of MS2 coat protein” value runs as follows: (input ligand: FMN 200 uM) 23.8 nM; under setting [4], 11.6 nM; (input ligand: none) 37.6 nM.
Take “CGACACACGGCAGGAUAUGCUUAGCAAAGCUAAGCAGAAGGGCCUCAUGUCGUGGAAACGUGACAUGAGGAUCACCCAUGUCGC [Omei SS(NG)1 C] (Eterna round: R96, puzzle: Same State NG 1)”: the “apparent KD of MS2 coat protein” value was 31 nM (input ligand: FMN 200 uM), 14.6 nM under setting [4] and 19.9 nM (input ligand: none).
On the same counts, the results for “CGAGAGUGCGUAGGAUAUCCGAAAGGAAGUGUAGGAGAAGGGCGGAACGCUCAUCGAAAACAUGAGGAUCACCCAUGUACAAAU [PowerStrip SSNG 1.17] (Eterna round: R96, puzzle: Same State NG 1)” are 24.7 nM, 62.7 nM and 43.9 nM.
